The data set is described as follows: label from the status in PepcDB records.
Regarding “MRLLSSPINRGFFDYVELYPSLVSSYFPPPDRPSAVLSVGETRYVNSVKQTASLDSLNDYEEQFPPLTGGSKTKKFYLGSTNPSTPCQSSQLQNWTSGKDALSLQRNLGCKNRRRRRASRFLHEESNGTTFEVGAGIGSPTSMVHFDSTNPSSSSKSSQSQNLKIRKVRNHRNSGFKSRDQSPQRIKDPPPFDICSSVLERNDTSIKDWILADETNRETVEVSNKHKVIRPGMVLLKDFLTPDIQVDIVKTCRELGVKPTGFYQPGYSVGSKLHLQMMCLGRNWDPQTKYRKNTDIDSKAPEIPVTFNVLVEKAIREAHALIDRESGTEDAERILPVMSPDICIVNFYSETGRLGLHQDRDESEESIARGLPIVSFSIGDSAEFLYGEKRDVEEAQGVILESGDVLIFGGESRMIFHGVKSIIPNSAPMSLLNESKLRTGRLNLTFRHF”, the protein production result is reported as “failed”.

Take “MRLLVSCVDSGSIKEVLCNIGTDTSVQSALQPFHVAPHLAEGLKAYVDRMWVISEDEAILARNSGVVELVKISKHLKENEALQVDPKGESKNEKSLSDDLPKFDISEFEITSSVSDLFDDAKLESLSSKSVKRTKLVDGFVTLCPIKKDSSNNTFVAATKSGLLHIIKKGEDKKLIKLASLGLKAPVEFLQLYDLEDTDTDKYIFAYGGEENLIKLVEIDSSFQSLKQIWEAKNVKNDRLDMRVPVWPMALRFLEPSPGKTEKGKLNYQFAAITRWSHLTKYSTQHGRKPFAQIDLLPNREPLSQMEVFDAKGENVVSSLGNFQSETFNELNVITTDYKKNVFKFDGNGRMLGKVGRDDITGSSTYIHVHDGKYLLQGGLDRYVRIFDIKTNKMLVKVYVGSRINFIVMLDDVEIEMPLSPSAKAAKGKQKRKVTELEEDADELWNKLEGKVAASKASKKSKI”: the protein production entry was “not failed”.

On to “MRLMDILEILYYKKGKEFGILEKKMKEIFNETGVSLEPVNSELIGRIFLKISVLEEGEEVPSFAIKALTPKENAVDLPLGDWTDLKNVFVEEIDYLDSYGDMKILSEKNWYKIYVPYSSVKKKNRNELVEEFMKYFFESKGWNPGEYTFSVQEIDNLF”, for which the protein production result is “not failed”.

As to “MRLPLNQRVAILLHEGTTGTIGKTGLALLRYSEAPIVAVIDRNCAGQSLREITGIYRYVPIVKSVEAALEYKPQVLVIGIAPKGGGIPDDYWIELKTALQAGMSLVNGLHTPLANIPDLNALLQPGQLIWDVRKEPANLDVASGAARTLPCRRVLTVGTDMAIGKMSTSLELHWAAKLRGWRSKFLATGQTGVMLEGDGVALDAVRVDFAAGAVEQMVMRYGKNYDILHIEGQGSLLHPGSTATLPLIRGSQPTQLVLVHRAGQTHNGNNPHVPIPPLPEVIRLYETVASGGGAFGTVPVVGIALNTAHLDEYAAKEAIAHTIAETGLPCTDVVRFGADVLLDAVMQN”, the protein production result is recorded as “not failed”.

In the case of “MRLRHLSDPDSLPALDKSFAIERPALGLAPDAPPVRILLLYGSLRARSFSRLAVEEAARLLQFFGAETRIFDPSDLPLPDQVQSDDHPAVKELRALSEWSEGQVWCSPERHGQITSVMKAQIDHLPLEMAGIRPTQGRTLAVMQVSGGSQSFNAVNTLRLLGRWMRMFTIPNQSSIAKAFQEFDAAGRMKPSPYYDRIADVMEELVRFTALVRPHREALTDRYSERKAAGHVIDEATDLSSIAIAPQPLPESETS”, the protein production entry is “not failed”.

In the case of “MRLSELGTGEKGVIVKVLGHGGFRKRIVEMGFIKGKTVEVLLNAPLKDPIKYKVLGYEISLRRQEAEMIEVVSEEEAKKQAEKAVYHEGLPEDVSVKEEDMKRLALGKRRTINVALVGNPNSGKTSLFNLASGAHEHVGNYSGVTVDAKEGYFDFEGYHFRIVDLPGTYSLSAYTPEEIYVRRHIVDETPDVIINVVDSSNLERNLYLTTQLIDMNVRMVVALNIYDELESSGNTLDYHLLSKLFGVPMVPTVSKKNRGLDTLFHVVINLYEGVDFFDKQGNMNPEVLKDLTEWHDSLEDRKNHEEEHLEDYVREHKRKGRVFRHIHINHGPDLEKAIDAVKEEVSKNEFIRHKYSTRFLSIKLLENDPDIESFVRTLPNAGEIFRIRDKMAKRVQETMNEDCESAITDAKYGFISGALKETFTDNHLEQAQTTKVLDAIVTHRIWGYPIFFLFMYLMFEGTFVLGEYPMMGIEWLVGQIGDLIRNNMSEGPLKDMLVDGIVGGVGGVIVFLPNILILYFCISLMEDSGYMARAAFIMDKIMHKMGLHGKSFIPLIMGFGCNVPAIMASRTIENRKSRLITMLINPLMSCSARLPIYLLLVGAFFPNNASLVLLSIYAIGIFLAVLLARLFSKFLVKGDDTPFVMELPPYRMPTAKSIFRHTWEKGAQYLKKMGGIIMIASIIIWFLGYYPNHEAYETVAEQQENSYIGQLGRAIEPVIKPMGFDWKLGIGLISGVGAKELVVSTLGVLYVDDPEADEASLAERIPITPLVAFCYMLFVLIYFPCIAALAAIKQESGSWKWALFAACYTTGLAWLVAFSVYQIGGMFV”, the protein production result is reported as “failed”.

As for “MRLSRIKLPKINSLYGRIFAIFWFTMLLVLIAVLSLPHLDPRKARDIPDEHYQRIIETRDAIQNKYSKETDLGRILFRVEGNRAGKHDPRPRVFFSDYNGNVLTTDKRSNFQLRAMQNFVTSIEDYNKPKQRLYGRYMIAGPVPIVLADSELLMYVGFKWNEPPPLLLRLFDHPFQLLLAVMLVSTPLLLWLAWALSQPARRLEAAAQRVAKGEFVIDPNLEKGTAEFRQAGSSFNQMVEAVNQMISGQQRLLSDISHELRSPLTRLRMASALATRKQGDSPELVRIDTEAQRLEQMISELLELSRMQVNSHMTRETQPIESLWEEIIKDAQFEAEQMGKTLRYSEIPERHISGNPKLLMSAVENIIRNAIYYGKDEVQIDIQDKTDTLTITVDDNGDGVPDEELEAIFRPFYRVSTARDRHSGGTGLGLTITESAIRQHSGTIVASRSPLGGLRVSITLPLVKVGK”, the protein production entry is “failed”.

Consider “MRLTTLWQNRSPGDRHLSTYFCFAAVRLLLVFVPQLGYVHPDEFFQSVEVMTGDHFRLEHTRTWEFNNSLPVRSIVLPFALLRIPWSFYEFVAECLKAWWQLELLGTYAYVVFPRLIYTLISFSNDYCLFRICRLYGLRFEIRLLAMGSSWILLVFGTRTFSNSLEMAMCSWLLCLVSECMLRTNTVVYKKEFLEEKYDKAESISERVRIWKLKNSLPAHNLQHLMAMSTICVAGVFNRPTFLLFGAPMVFFWLLRGMGTRSITFRDFNLRIALFCLCALPALVLFIFCDSLYYQHLTLGELHMMHLSIDNFVFTPWNFIKANLDSAQTASHGVHPCYVHLMVNMPMLFNVLALASLGAFAQLLLRFFRAEYQVLPRFQSIVSLMSGAIFVPLFFLSLINHQEPRFLLPVTFPLILLHAPKLITGFSAKYPFQKDHPLLRLFYDKLLSSKASGPYLLKIWYVSNVALTLFFGFIHQAGVYPLAADISHVIATKPAATHVHLITSHIYSLPLHLINIPSSRVLHFNRLTHQRYRRPRDFYMYEYGGLPLDSLLQKVKLISGSCEVKKSGPSRRRYKLYLAIPASLSADLHEALVHSNASSYLNFELLKVFYPHLSTEAFPHLQGRHPCDVDAPHWAHDDLRGTCSAEQLPAFSFAYLNKQFSSFVHQLGLALYEIDVTRNKPRYVSLAYSGCSPTKGYFLLFIQFLICLALCIAAAQAGFIASPVTTYAAAPAYAASYAAPVAYSAPVATYAAAAPAYSTYAAAAPAYSTYAAAAPAYSTYAAAAPAYTASVYSAPAYTAPVTTYAAGAAYAAPVTTYSAPAIVSPILKKK”, for which the protein production result is on record as “failed”.

As for “MRLVADSACDIKELRGMVFKAVPLTISTDNEEFCDDGQLDIHRMLDILEKHKGRSYTACPGIDAWLEAFGDDDEIFVVTITAGMSGTYNSAMAARAVYLEEHPQAKVRVIDSKSTGPQMRIILEQLQQMIEEGKKFEEIDGAIDAYMQKTRLFCSLKSLHNLAQNGRVSKVVASAAEVLGISVIGTASSHGTLEAIGKCRGDKKLLVKLQALLDDAGYEGGKLRICHVENEALADKIADMIKQAYGTTDVCVYKAGGLCSYYAERGGIILSCETK”, the protein production result was “not failed”.

Turning to “MRLVEIGRFGAPYALKGGLRFRGEPVVLHLERVYVEGHGWRAIEDLYRVGEELVVHLAGVTDRTLAEALVGLRVYAEVADLPPLEEGRYYYFALIGLPVYVEGRQVGEVVDILDAGAQDVLIIRGVGERLRDRAERLVPLQAPYVRVEEGGIHVDPIPGLFDLEHHHHHH”, the protein production result is given as “failed”.

Regarding “MRLYTRTGDKGKTSVIGGRLAKDDTRVVAYGTTDELNSFVGLAITQLDENTFADIRGELFKIQHELFDCGGDLAMLKVKEDRPYKAKQEIVDFLEQRIDAYIKEAPELERFILPGGSEAAASLHVCRTIARRAERYVVRLQQEGEINPIVLKYLNRLSDYFFAVARVVNSRLQVPDVEYERSAIVFREGKRKEDKK”, the protein production result is on record as “not failed”.

For the sequence “MRMAATAPAFPELEGRHPCFSTTAEGHARAARLHLPVSPGCNIDCAFCIRDFNRRDQRPGVATRLLTPEQAVAIVARALELCPSINVVGIAGPGDPLATPHALQTFALVRERWPELVLCLSTNGLMLPDRIDEIAGLGISTLTVTVNAVDPQIQAQVTPKIAWQRKRLNGVVAGERLIANQLEGIARAAAHGLTVKVNTVLIPTVNDHHIETIAERVAAAGANLINIIPLIPQHGFAHLKPPGMLMRYAARTAAEKYLRVFTHCQRCRADACGIPGVSDYAQQLYGDDIVAEPTFSHG”, the protein production result is listed as “failed”.

With “MRMFFSGLMESLKENKITFLWVLLFFLVGIVLGSYTVYYMSDFNRVEITTYFNNFLEFLGGNSVSYTSILVDSIKSILPMVAIIVLLGYTAVGTPIILMMDLAKGYVIGFTFSLIVSMLGSKGVMLVLSGLMLQNLIFIPIIMLISVLAIRHSVTKLKMGVSRDRVKLDVSRAYLNFQGLLSLIIISGILIETYISPNLIRLVISR”, the protein production entry was “failed”.

As for “MRMGLKADSWIKKMSLEHGMISPFCEKQVGKNVISYGLSSYGYDIRVGSEFMLFDNKNALIDPKNFDPNNATKIDASKEGYFILPANAFALAHTIEYFKMPKDTLAICLGKSTYARCGIIVNVTPFEPEFEGYITIEISNTTNLPAKVYANEGIAQVVFLQGDEMCEQSYKDRGGKYQGQVGITLPKILK”, the protein production result is “failed”.

With “MRMILMFDMPTETAEERKAYRKFRKFLLSEGFIMHQFSVYSKLLLNNTANNAMIGRLKVNNPKKGNITLLTVTEKQFARMVYLHGERNTSVANSDSRLVFLGDSYDQDLEHHHHHH”, the protein production result was “failed”.

Regarding “MRMNIRVALPQAQVHWCRGWLQAAHADALMQALLDQVQWEVHRIRMFGRVVDSPRLSSWIGDADASYRYSGTQFAPQPWLEALQPVRTRLQDETGSPFNSVLVNRYRSGADAMGWHSDDEPELGAQPVIASLSLGAARRFAFKHRHDAALKQTLELGHGDLLLMGGDTQRHYKHALPRTVKPVGERINLTFRQIAVRVSQRLEHHHHHH”, the protein production result is given as “failed”.

As for “MRNEAFDILKDIPKWKLIFWLLLAITLTPITELIIYRLVTSVIESSLTLTELGKEFIRIFGYEKYKGIKESLWMMIVSYLFLFSIFSSYLYIFYRHEKKLYYETCIKKMIEEIRYIANGNFNHKVSIVNHNYLEELAIGVNEIVEQLKVSIDEERQAEQAKSELITNVSHDLRTPLTSIVGYVNLIHHDNYRDEVELRYYIQVIYDKVTRLNALMNDLFEYTRVQNKELSLYSVPIDIVELLGQLTVQFRIQVQEANIECRPSFPSQKLMVLADGDKLVRVFENLIINAIAYGSEGRYIDLTAYESNNMITIDITNYGQPIPSTDLPHIFERFYRVEKSRSTNTGGSGLGLAIAKSIVELHKGTIEVYSDDEKTTFTVKLLPYKC”, the protein production entry is on record as “failed”.

Regarding “MRNHPLGIYEKALAKDLSWPERLVLAKSCGFDFVEMSVDETDERLSRLEWTSAQRASLVSAMLESGVAIPSMCLSAHRRFPFGSRDEAVRQRAREIMTKAIRLARDLGIRTIQLAGYDVYYEEHDEGTRQRFAEGLAWAVEQAAAAQVMLAVEIMDTAFMNSISKWKKWDEMLSSPWFTVYPDVGNLSAWGNDVTAELKLGIDRIAAIHLKDTLPVTGDSPGQFRDVPFGEGCVDFVGIFKTLHELNYRGSFLIEMWTEKSSEPVLEIIQARRWIESRMQEGGFTC”, the protein production entry is on record as “failed”.

Regarding “MRNIYDLANELERGIRALPEYKNLVEKKEAIATDAEASALFKEFTDFQEDFYAKMQAGTMPTAEEQAAVQELGQKVEANALLKEYLTAQQSLSVYLNDIERIIFKPLQELNN”, the protein production entry is on record as “failed”.
